Experimental data taken from patent publication US20230348603A1 (VERSEAU THERAPEUTICS, published 2023).

T1: Cynomolgus Monkey VSIG4-L-His (cynomolgus monkey)
T1 construct: ECD with His tag; also called cyVSIG4-L; cyno VSIG4-L-His
T1 chain: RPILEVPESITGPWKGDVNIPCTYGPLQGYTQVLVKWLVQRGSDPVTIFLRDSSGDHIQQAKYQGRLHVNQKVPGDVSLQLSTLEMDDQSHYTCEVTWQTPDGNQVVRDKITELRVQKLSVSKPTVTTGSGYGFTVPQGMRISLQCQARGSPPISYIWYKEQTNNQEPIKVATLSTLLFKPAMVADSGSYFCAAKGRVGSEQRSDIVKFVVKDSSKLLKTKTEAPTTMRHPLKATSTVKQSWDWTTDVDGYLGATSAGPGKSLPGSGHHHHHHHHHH

T2: Human VSIG4-L-His (human, UniProt Q9Y279 20-283)
T2 construct: long isoform ECD with His tag; also called hVSIG4-L
T2 sequence: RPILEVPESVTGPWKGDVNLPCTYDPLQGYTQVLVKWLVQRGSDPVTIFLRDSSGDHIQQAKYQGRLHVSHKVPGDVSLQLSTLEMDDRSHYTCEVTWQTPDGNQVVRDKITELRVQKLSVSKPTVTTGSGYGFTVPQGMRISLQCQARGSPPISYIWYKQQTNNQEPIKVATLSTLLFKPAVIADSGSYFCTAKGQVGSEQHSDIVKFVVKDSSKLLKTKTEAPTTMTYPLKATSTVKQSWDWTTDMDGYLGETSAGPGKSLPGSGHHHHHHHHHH


Legend:
Human VSIG4-L-Fc [1] = molecular target: T3, Human VSIG4-L-Fc (human); assay: ELISA, Fab P.E. 1:5 on coated antigen;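 note: mouse Fab P.E. samples in 1% skimmed milk PBS, bound to antigen-coated wells for 1 h at room temperature, read as absorbance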
T3 construct: also called hVSIG4-L-Fc; hVSIG4-L
Target sequence in this assay (chain, as listed by the source limits assumed): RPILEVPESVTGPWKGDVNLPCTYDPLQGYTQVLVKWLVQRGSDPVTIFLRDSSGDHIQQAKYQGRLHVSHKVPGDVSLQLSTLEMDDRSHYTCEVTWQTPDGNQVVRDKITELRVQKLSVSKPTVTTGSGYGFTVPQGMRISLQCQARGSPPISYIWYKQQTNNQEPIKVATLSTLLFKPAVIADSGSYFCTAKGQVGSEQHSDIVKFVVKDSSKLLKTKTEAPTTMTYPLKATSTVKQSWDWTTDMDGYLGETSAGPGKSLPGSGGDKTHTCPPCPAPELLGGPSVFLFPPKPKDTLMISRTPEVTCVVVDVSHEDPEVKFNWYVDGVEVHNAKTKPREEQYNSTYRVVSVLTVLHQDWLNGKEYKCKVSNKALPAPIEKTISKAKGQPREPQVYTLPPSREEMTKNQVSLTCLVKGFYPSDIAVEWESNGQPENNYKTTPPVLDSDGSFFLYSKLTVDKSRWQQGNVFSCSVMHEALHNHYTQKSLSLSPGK
Protocol: (§1) Coated microplates were blocked with dried skimmed milk at 4% in PBS. P.E. samples of the mouse unique Fab sequences were diluted 1:5 in assay buffer (1% dried skimmed milk in PBS), and 100 μl of diluted sample was added onto the coated wells and incubated for one hour at room temperature. […] Optical density (OD) at 450 nm was determined using a standard absorbance microplate reader.

Human VSIG4-S-Fc = molecular target: T4, Human VSIG4-S-Fc (human); assay: ELISA, Fab P.E. 1:5 on coated antigen;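 note: mouse Fab P.E. samples in 1% skimmed milk PBS, bound to antigen-coated wells for 1 h at room temperature, read as absorbance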
T4 construct: short isoform ECD fused to human Fc1; also called hVSIG4-S
T4 sequence (chain, as listed by the source limits assumed): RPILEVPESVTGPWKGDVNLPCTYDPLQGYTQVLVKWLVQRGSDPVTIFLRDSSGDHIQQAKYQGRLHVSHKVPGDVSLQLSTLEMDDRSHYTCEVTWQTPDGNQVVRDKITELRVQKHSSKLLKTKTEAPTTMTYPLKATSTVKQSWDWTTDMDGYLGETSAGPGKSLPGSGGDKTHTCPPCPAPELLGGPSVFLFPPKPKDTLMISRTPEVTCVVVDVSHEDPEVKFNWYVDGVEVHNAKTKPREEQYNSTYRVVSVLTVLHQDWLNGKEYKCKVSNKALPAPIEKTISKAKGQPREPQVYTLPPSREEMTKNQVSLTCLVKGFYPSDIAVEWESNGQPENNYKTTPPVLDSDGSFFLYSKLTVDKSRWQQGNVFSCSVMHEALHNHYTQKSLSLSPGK
Protocol: as §1

[2] = molecular target: T1, Cynomolgus Monkey VSIG4-L-His; assay: ELISA, Fab P.E. 1:5 on coated antigen;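 note: mouse Fab P.E. samples in 1% skimmed milk PBS, bound to antigen-coated wells for 1 h at room temperature, read as absorbance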
Protocol: as §1

Human VSIG4-L-Fc [3] = molecular target: T3, Human VSIG4-L-Fc; assay: blocking ELISA, biotin-C3b on coated hVSIG4-L-Fc
Protocol: (§2) Coated microplates were blocked with casein (Sigma-Aldrich, St. Louis, MO) at 1% in PBS. […] One hundred ill of the mixed sample was added onto the coated wells and incubated for one hour at room temperature. […] OD at 450 nm was determined using a standard absorbance microplate reader.

Human VSIG4-L-Fc [4] = molecular target: T3, Human VSIG4-L-Fc; assay: blocking ELISA, biotin-iC3b on coated hVSIG4-L-Fc
Protocol: as §2

Human VSIG4-L-His = molecular target: T2, Human VSIG4-L-His; assay: SPR (Biacore T200), Fab P.E. 1:5 over immobilised antigen
Protocol: Off-rate values of the mouse unique Fab clones were determined using surface plasmon resonance (SPR) in Biacore™ T200 equipment (GE Healthcare, Chicago, IL). […] The immobilization was performed in accordance with a method provided by Biacore and by using the NHS/EDC kit (GE Healthcare, Chicago, IL). […] Sixty μl of Fab P.E. samples, diluted 1:5 in HBS-EP+ assay buffer (0.1 M HEPES, 1.5 M NaCl, 0.03 M EDTA and 0.5% v/v Surfactant P20), were injected and passed through the flow cells at a flow rate of 30 μl/min. After binding of the samples to VSIG4 protein, the off-rate was monitored for a period of five minutes. The flow cell surface was regenerated by a double injection of 10 μl of 1 mM glycine at pH 1.5 in 1 M sodium chloride at 30 μl/min. Off-rate analysis was done using the BIAevaluation software (GE Healthcare, Chicago, IL) and using a 1:1 dissociation kinetic fit curve.

| Binder | ELISA OD450 (Human VSIG4-L-Fc [1]) [OD450] | ELISA OD450 (Human VSIG4-S-Fc) [OD450] | ELISA OD450 [2] [OD450] | Percent Blocking C3b (Human VSIG4-L-Fc [3]) [%] | Percent Blocking iC3b (Human VSIG4-L-Fc [4]) [%] | koff (Human VSIG4-L-His) [s⁻¹] |
| --- | --- | --- | --- | --- | --- | --- |
| 14C05 mouse Fab (periplasmic extract) (Fab, V domains shown, mouse Fab with C-terminal His6-c-myc tag) VH: EVMLVESGPELKKPGETVKISCKASGYTFTNYGMNWVKQAPGKGLKWMGSINTYTGEATYADDFKGRFAFSLETSANTAYLQIDNLKNEDTATYFCARGDYYGRGTWFAYWGQGTLVTVSA VL: ETTVTQSHKFMSTSVGDRVSITCKASQDVSTAVAWYQQKPGQSPKLLIYSASYRYPGVPDRFTGSGSGTDFTFTISSVQAEDLAVYYCQQDYSSPWTFGGGTKLEIK | 4.33 | 4.32 | 4.37 | 88.8 | 88.7 | 0.00037 |
| 14D12 mouse Fab (periplasmic extract) (Fab, V domains shown, mouse Fab with C-terminal His6-c-myc tag) VH: QIQLVQSGPELKKPGETVKISCKASGYTFTNYGMNWVKQTPGKGLKWMGLINTYTGEPTYADDFKGRFAFSLETSASTAYLQINNLKNEDMATYFCARERIYGYLHYFDYWGQGTTLTVSS VL: DVVMTQTPASLAVSLGQRATISCKASQSVDYDGDSYMNWYQQKPGQPPKLLIYAASNLESGIPARFSGSGSGTDFTLNIHPVEEEDAATYYCQQSNEDPRTFGGGTKLEIK | 4.32 | 4.18 | 4.32 | 70.3 | 56 | 0.0063 |
| 12A12 mouse Fab (periplasmic extract) (Fab, V domains shown, mouse Fab with C-terminal His6-c-myc tag) VH: QVQMKQSGAELAKPGASVKMSCKASGYTFTNYWMHWVKQRPGQGLEWIGYINPSTGYTDYNQNFKDRATLTADKSSSTAYMQLSSLTSEDSAVYYCIRGSDYYGRDYWGQGTTLTVSS VL: DIQMTQTTSSLSASLGDRVTISCRASQDISNYLNWYQQKPDGTLKLLIYYTSRLHSGVPSRFSGSGSGTDYSLTISNLEQEDIATYFCRQGNTLPWTFGGGTKLEIK | 4.42 | 4.18 | 4.37 | 74.8 | 76.5 | 0.0038 |
| 16E10 mouse Fab (periplasmic extract) (Fab, V domains shown, mouse Fab with C-terminal His6-c-myc tag) VH: QVQLQQSGAELVRPGTSVKISCKASGYTFTNYWLGWVKQRPGHGLEWIGDIYPGGGYTNYNEKFKGKATLTADTSSSTAYMQLSSLTSEDSAVYFCAKFYYYGSSYYFDSWGQGTTLTVSS VL: DIVLTQSPSSLSVSAGEKVTLSCKSSQSLLNSGNQENYLAWYQQKPGQPPKLLIYGASTRESGVPDRFTGSGSGTDFTLTISSVQAEDLAVYYCQNDHSYPLTFGAGTKLELK | 1.86 | 1.32 | 1.88 | 7.1 | 7.6 | 0.025 |
